# From PMC5430435
# Tests used:
# [1] = target: mouse LHR endogenously expressed in mLTC-1 cells (mouse (endogenous in mLTC-1)) (UniProt P30730)
# [2] = target: human LH/CGR (wild type, without BRET fusion) (human) (UniProt P22888)
# [3] = target: hLH/CGR C-terminally fused to the BRET donor Rluc8 (human) (UniProt P22888)
# UniProt P30730, sequence (P30730 27-700): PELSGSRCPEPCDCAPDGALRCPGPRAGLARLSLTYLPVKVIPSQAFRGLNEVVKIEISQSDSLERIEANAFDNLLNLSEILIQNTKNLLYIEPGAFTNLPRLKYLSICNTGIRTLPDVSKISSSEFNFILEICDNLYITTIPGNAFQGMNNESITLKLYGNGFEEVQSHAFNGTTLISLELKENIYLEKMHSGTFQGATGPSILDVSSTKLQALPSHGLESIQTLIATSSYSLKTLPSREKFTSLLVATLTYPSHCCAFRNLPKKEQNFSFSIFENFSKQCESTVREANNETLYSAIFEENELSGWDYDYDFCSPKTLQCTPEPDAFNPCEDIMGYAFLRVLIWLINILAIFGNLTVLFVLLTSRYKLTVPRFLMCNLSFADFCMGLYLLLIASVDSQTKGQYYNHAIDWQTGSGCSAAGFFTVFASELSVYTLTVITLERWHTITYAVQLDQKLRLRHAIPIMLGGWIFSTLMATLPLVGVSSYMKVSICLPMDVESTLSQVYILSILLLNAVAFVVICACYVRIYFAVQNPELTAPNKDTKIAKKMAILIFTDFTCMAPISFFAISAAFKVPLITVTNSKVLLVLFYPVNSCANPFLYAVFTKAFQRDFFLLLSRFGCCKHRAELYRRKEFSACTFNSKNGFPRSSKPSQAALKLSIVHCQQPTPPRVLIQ
Substance,"Cre-reporter assay (pSOM-Luc luciferase) in mLTC-1 cells, 6 hours with increasing doses; EC50 [1] [pM]","cAMP (BRET sensor CAMYEL) in mLTC-1 cells, 30 minutes with increasing doses; EC50 [1] [nM]","cAMP (HTRF) in native mLTC-1 cells, 30 minutes with increasing doses; EC50 [1] [nM]","progesterone production by mLTC-1 cells (ELISA of supernatants), 3 hours with increasing doses; EC50 [1] [nM]","testosterone production by mLTC-1 cells (HTRF of supernatants), 3 hours with increasing doses; EC50 [1] [nM]","Cre-reporter assay (pSOM-Luc luciferase) in HEK293 cells expressing hLH/CGR, 6 hours with increasing doses; EC50 [2] [pM]","cAMP production (BRET sensor CAMYEL) in HEK293 cells expressing hLH/CGR, 30 minutes with increasing doses; EC50 [2] [nM]","β-arrestin 2 recruitment (BRET between hLH/CGR-Rluc8 and yPET-β-arrestin 2) in HEK293 cells, 30 minutes with increasing doses; EC50 [3] [nM]"
human recombinant luteinizing hormone rhLH (Luveris) (from UniProt P01215 25-116; P01229 21-141) (ligand),318,0.459,1.98,0.306,0.0291,215,0.286,129
recombinant human chorionic gonadotropin rhCG (Ovitrelle) (from UniProt P01215 25-116; P0DN86 21-165) (ligand),25,0.0688,0.0974,0.0197,0.00219,37.5,0.0176,10.3
